Literature values, collected in patent US10316097B2, “Method for the treatment of epilepsy, epileptogenesis, seizures or convulsions by an anti-colony-stimulating factor 1 receptor (CSF-1R) antibody” (UCB BIOPHARMA SPRL, priority 2015, dated 2019).

What was measured:
[1] = systemic administration in rodents
[2] = test system: TNF-α-driven inflammation in the brain; conditions: systemic administration in rodents

Question: Which “Crossing of the blood-brain barrier (BBB)” value [1] does the source give for etanercept here?
Answer: The value was “does not cross the blood-brain barrier”.

Question: What about the “Effect on TNF-α-driven inflammation in the brain” value [2] of the same substance?
Answer: Its value is “does not affect”.
